The record followed here is US20220064329A1 (Novo Nordisk, published 2022).

T1: recombinant human activated Factor VII (FVIIa) (human, UniProt P08709 61-212; P08709 213-466, ten glutamate residues of the Gla domain may be gamma-carboxylated)
T1 construct: chains tethered by a disulfide bond; also called Factor VIIa; rFVIIa
T1 sequence 1: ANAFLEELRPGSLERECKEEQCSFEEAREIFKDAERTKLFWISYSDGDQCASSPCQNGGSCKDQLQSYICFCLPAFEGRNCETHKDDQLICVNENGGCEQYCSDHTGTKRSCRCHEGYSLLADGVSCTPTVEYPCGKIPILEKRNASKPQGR
T1 sequence 2: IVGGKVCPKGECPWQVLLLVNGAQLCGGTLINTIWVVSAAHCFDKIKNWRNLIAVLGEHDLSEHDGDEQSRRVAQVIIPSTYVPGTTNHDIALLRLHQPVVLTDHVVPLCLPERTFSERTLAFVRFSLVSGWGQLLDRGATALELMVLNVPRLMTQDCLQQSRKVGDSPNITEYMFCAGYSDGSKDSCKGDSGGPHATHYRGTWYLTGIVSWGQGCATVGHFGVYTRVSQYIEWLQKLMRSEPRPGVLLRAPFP

B1: VH SEQ ID NO 610 / VL SEQ ID NO 310 (antibody, IgG4, V domains shown)
VH: QVQLQESGPGLVKPSQTLSLTCTVSGGSITSDSAWSWIRQPPGKGLEWIGYIQYSGSTNYNPSLKSRVTISVDTSKNQFSLKLSSVTAADTAVYYCARSVNYYGNSFAVGYWGQGTLVTVSS
VL: EIVLTQSPATLSLSPGERATLSCRASQGISDYLAWYQQKPGQAPRLLIKYASQPATGIPARFSGSGSGTDFTLTISSLEPEDFAVYYCQNGHSFPLTFGQGTKLEIK
notes: humanized 11F2; IgG4 S228P/kappa
B2: VH SEQ ID NO 618 / VL SEQ ID NO 350 (antibody, IgG4, V domains shown)
VH: B1 VH with G27Y, T30S, P41F, V72R, Y111P
VL: B1 VL with A34H, A51T, Q100A, I106L
notes: as for B1
B3: VH SEQ ID NO 610 / VL SEQ ID NO 502 (antibody, IgG4, V domains shown)
VH: B1 VH
VL: B1 VL with I29V, A34H, A51T
notes: as for B1
B4: VH SEQ ID NO 610 / VL SEQ ID NO 446 (antibody, IgG4, V domains shown)
VH: B1 VH
VL: B1 VL with I29V, A51T
notes: as for B1
B5: VH SEQ ID NO 618 / VL SEQ ID NO 382 (antibody, IgG4, V domains shown)
VH: B1 VH with G27Y, T30S, P41F, V72R, Y111P
VL: B1 VL with I29L, A34H, Q42E
notes: as for B1
B6: VH SEQ ID NO 610 / VL SEQ ID NO 334 (antibody, IgG4, V domains shown)
VH: B1 VH
VL: B1 VL with A34H
notes: as for B1
B7: VH SEQ ID NO 618 / VL SEQ ID NO 366 (antibody, IgG4, V domains shown)
VH: B1 VH with G27Y, T30S, P41F, V72R, Y111P
VL: B1 VL with I29L, Q42E
notes: as for B1
B8: VH SEQ ID NO 618 / VL SEQ ID NO 470 (antibody, IgG4, V domains shown)
VH: B1 VH with G27Y, T30S, P41F, V72R, Y111P
VL: B1 VL with I29V, A34H
notes: as for B1
B9: VH SEQ ID NO 610 / VL SEQ ID NO 318 (antibody, IgG4, V domains shown)
VH: B1 VH
VL: B1 VL with A34H, Q42E, A51T
notes: as for B1
B10: VH SEQ ID NO 610 / VL SEQ ID NO 494 (antibody, IgG4, V domains shown)
VH: B1 VH
VL: B1 VL with I29V, A34H, F83V
notes: as for B1
B11: VH SEQ ID NO 618 / VL SEQ ID NO 438 (antibody, IgG4, V domains shown)
VH: B1 VH with G27Y, T30S, P41F, V72R, Y111P
VL: B1 VL with I29V, F83V
notes: as for B1
B12: VH SEQ ID NO 610 / VL SEQ ID NO 486 (antibody, IgG4, V domains shown)
VH: B1 VH
VL: B1 VL with I29V, A34H, A84G
notes: as for B1
B13: VH SEQ ID NO 618 / VL SEQ ID NO 326 (antibody, IgG4, V domains shown)
VH: B1 VH with G27Y, T30S, P41F, V72R, Y111P
VL: B1 VL with A34H, Q42E, A51T, A84G, Q100A, I106L
notes: as for B1
B14: VH SEQ ID NO 618 / VL SEQ ID NO 422 (antibody, IgG4, V domains shown)
VH: B1 VH with G27Y, T30S, P41F, V72R, Y111P
VL: B1 VL with I29V, N90Q
notes: as for B1
B15: VH SEQ ID NO 618 / VL SEQ ID NO 390 (antibody, IgG4, V domains shown)
VH: B1 VH with G27Y, T30S, P41F, V72R, Y111P
VL: B1 VL with I29V, Q42E
notes: as for B1
B16: VH SEQ ID NO 610 / VL SEQ ID NO 342 (antibody, IgG4, V domains shown)
VH: B1 VH
VL: B1 VL with A34H, A51T, T69R, Q100A, I106L
notes: as for B1
B17: VH SEQ ID NO 618 / VL SEQ ID NO 334 (antibody, IgG4, V domains shown)
VH: B1 VH with G27Y, T30S, P41F, V72R, Y111P
VL: B1 VL with A34H
notes: as for B1
B18: VH SEQ ID NO 618 / VL SEQ ID NO 430 (antibody, IgG4, V domains shown)
VH: B1 VH with G27Y, T30S, P41F, V72R, Y111P
VL: B1 VL with I29V, A84G
notes: as for B1
B19: VH SEQ ID NO 610 / VL SEQ ID NO 454 (antibody, IgG4, V domains shown)
VH: B1 VH
VL: B1 VL with I29V, A34H, Q42E
notes: as for B1
B20: VH SEQ ID NO 618 / VL SEQ ID NO 398 (antibody, IgG4, V domains shown)
VH: B1 VH with G27Y, T30S, P41F, V72R, Y111P
VL: B1 VL with I29V, Q42E, A51T
notes: as for B1
B21: VH SEQ ID NO 610 / VL SEQ ID NO 382 (antibody, IgG4, V domains shown)
VH: B1 VH
VL: B1 VL with I29L, A34H, Q42E
notes: as for B1
B22: VH SEQ ID NO 610 / VL SEQ ID NO 462 (antibody, IgG4, V domains shown)
VH: B1 VH
VL: B1 VL with I29V, A34H, Q100A
notes: as for B1
B23: VH SEQ ID NO 610 / VL SEQ ID NO 326 (antibody, IgG4, V domains shown)
VH: B1 VH
VL: B1 VL with A34H, Q42E, A51T, A84G, Q100A, I106L
notes: as for B1
B24: VH SEQ ID NO 618 / VL SEQ ID NO 358 (antibody, IgG4, V domains shown)
VH: B1 VH with G27Y, T30S, P41F, V72R, Y111P
VL: B1 VL with A34H, A51T
notes: as for B1
B25: VH SEQ ID NO 610 / VL SEQ ID NO 350 (antibody, IgG4, V domains shown)
VH: B1 VH
VL: B1 VL with A34H, A51T, Q100A, I106L
notes: as for B1
B26: VH SEQ ID NO 610 / VL SEQ ID NO 478 (antibody, IgG4, V domains shown)
VH: B1 VH
VL: B1 VL with I29V, A34H, N90Q
notes: as for B1
B27: VH SEQ ID NO 610 / VL SEQ ID NO 390 (antibody, IgG4, V domains shown)
VH: B1 VH
VL: B1 VL with I29V, Q42E
notes: as for B1
B28: VH SEQ ID NO 618 / VL SEQ ID NO 446 (antibody, IgG4, V domains shown)
VH: B1 VH with G27Y, T30S, P41F, V72R, Y111P
VL: B1 VL with I29V, A51T
notes: as for B1
B29: VH SEQ ID NO 618 / VL SEQ ID NO 318 (antibody, IgG4, V domains shown)
VH: B1 VH with G27Y, T30S, P41F, V72R, Y111P
VL: B1 VL with A34H, Q42E, A51T
notes: as for B1
B30: VH SEQ ID NO 618 / VL SEQ ID NO 414 (antibody, IgG4, V domains shown)
VH: B1 VH with G27Y, T30S, P41F, V72R, Y111P
VL: B1 VL with I29V
notes: as for B1
B31: VH SEQ ID NO 618 / VL SEQ ID NO 406 (antibody, IgG4, V domains shown)
VH: B1 VH with G27Y, T30S, P41F, V72R, Y111P
VL: B1 VL with I29V, Q100A
notes: as for B1
B32: VH SEQ ID NO 610 / VL SEQ ID NO 470 (antibody, IgG4, V domains shown)
VH: B1 VH
VL: B1 VL with I29V, A34H
notes: as for B1
B33: VH SEQ ID NO 610 / VL SEQ ID NO 430 (antibody, IgG4, V domains shown)
VH: B1 VH
VL: B1 VL with I29V, A84G
notes: as for B1
B34: VH SEQ ID NO 610 / VL SEQ ID NO 438 (antibody, IgG4, V domains shown)
VH: B1 VH
VL: B1 VL with I29V, F83V
notes: as for B1
B35: VH SEQ ID NO 610 / VL SEQ ID NO 414 (antibody, IgG4, V domains shown)
VH: B1 VH
VL: B1 VL with I29V
notes: as for B1
B36: VH SEQ ID NO 610 / VL SEQ ID NO 366 (antibody, IgG4, V domains shown)
VH: B1 VH
VL: B1 VL with I29L, Q42E
notes: as for B1
B37: VH SEQ ID NO 618 / VL SEQ ID NO 462 (antibody, IgG4, V domains shown)
VH: B1 VH with G27Y, T30S, P41F, V72R, Y111P
VL: B1 VL with I29V, A34H, Q100A
notes: as for B1
B38: VH SEQ ID NO 610 / VL SEQ ID NO 406 (antibody, IgG4, V domains shown)
VH: B1 VH
VL: B1 VL with I29V, Q100A
notes: as for B1
B39: VH SEQ ID NO 610 / VL SEQ ID NO 358 (antibody, IgG4, V domains shown)
VH: B1 VH
VL: B1 VL with A34H, A51T
notes: as for B1
B40: VH SEQ ID NO 618 / VL SEQ ID NO 310 (antibody, IgG4, V domains shown)
VH: B1 VH with G27Y, T30S, P41F, V72R, Y111P
VL: B1 VL
notes: as for B1
B41: VH SEQ ID NO 618 / VL SEQ ID NO 454 (antibody, IgG4, V domains shown)
VH: B1 VH with G27Y, T30S, P41F, V72R, Y111P
VL: B1 VL with I29V, A34H, Q42E
notes: as for B1
B42: VH SEQ ID NO 618 / VL SEQ ID NO 342 (antibody, IgG4, V domains shown)
VH: B1 VH with G27Y, T30S, P41F, V72R, Y111P
VL: B1 VL with A34H, A51T, T69R, Q100A, I106L
notes: as for B1

Numbering of substitutions follows the chain as printed. Names and notes keep the numbering of the source.

The target of the assay is T1, recombinant human activated Factor VII …. Briefly: BLI (Fortebio).
Regarding B1, the Kd was found to be 80 nM.
Take B2: the Kd was found to be 1 nM.
In the case of B3, the Kd was 17 nM.
B4: the Kd was 49 nM.
In the case of B5 it was 1.1 nM; in that of B6, 13 nM.
Consider B7, for which the Kd is 21 nM.
For the molecule B8, the equilibrium dissociation constant (Kd) is 1.2 nM.
Take B9: the Kd came to 10 nM.
In the case of B10, the Kd is 17 nM.
As for B11, the Kd turned out to be 34 nM.
For the molecule B12, the Kd stood at 17 nM.
As for B13, the figure is 1.1 nM; as for B14, 5800 nM; as for B15, 33 nM.
Take B16: the Kd was 16 nM.
In the case of B17 it was 1.3 nM; in that of B18, 110 nM; in that of B19, 16 nM.
Take B20: the Kd came to 180 nM.
With B21, the Kd is 17 nM.
As for B22, the figure is 17 nM; as for B23, 11 nM.
Turning to B24, the equilibrium dissociation constant (Kd) turned out to be 0.95 nM.
In the case of B25 it was 11 nM; in that of B26, 33 nM.
As to B27, the Kd came to 380 nM.
On to B28, for which the Kd is 200 nM.
In the case of B29, the Kd was 1.1 nM.
Take B30: the Kd was 24 nM.
Take B31: the Kd is 24 nM.
With B32, the Kd came to 16 nM.
For B33, the Kd stood at 1500 nM.
As to B34, the dissociation constant Kd was 620 nM.
B35: the Kd worked out at 780 nM.
In the case of B36 it was 330 nM; in that of B37, 1.4 nM; in that of B38, 480 nM.
As for B39, the Kd came to 11 nM.
As to B40, the Kd was 12 nM.
Regarding B41, the Kd was 1.3 nM.
On to B42, for which the Kd is 1.2 nM.
